Where a chain is given by its changes, count along the chain named.
T1: DMD 37-38x.15 (synthetic construct)
T1 chain: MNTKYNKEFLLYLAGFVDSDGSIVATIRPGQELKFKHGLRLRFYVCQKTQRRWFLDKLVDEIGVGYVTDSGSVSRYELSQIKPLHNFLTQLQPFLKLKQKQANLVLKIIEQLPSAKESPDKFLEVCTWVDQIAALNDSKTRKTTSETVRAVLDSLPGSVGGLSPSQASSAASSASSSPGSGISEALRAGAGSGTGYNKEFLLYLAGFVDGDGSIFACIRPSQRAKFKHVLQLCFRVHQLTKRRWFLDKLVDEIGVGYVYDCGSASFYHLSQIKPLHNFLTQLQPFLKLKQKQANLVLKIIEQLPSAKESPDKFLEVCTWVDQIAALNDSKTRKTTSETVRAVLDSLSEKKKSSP

T2: DMD 37-38x.66 (synthetic construct)
T2 chain: T1 chain with S19A, V64A, L239K, C261H, F266C, Q271E, K330H

T3: DMD 37-38x.79 (synthetic construct)
T3 chain: T1 chain with S19A, L239S, K241R, V255A, C261H, F266L, H268S, K330H

T4: DMD 35-36x.63 (synthetic construct)
T4 chain: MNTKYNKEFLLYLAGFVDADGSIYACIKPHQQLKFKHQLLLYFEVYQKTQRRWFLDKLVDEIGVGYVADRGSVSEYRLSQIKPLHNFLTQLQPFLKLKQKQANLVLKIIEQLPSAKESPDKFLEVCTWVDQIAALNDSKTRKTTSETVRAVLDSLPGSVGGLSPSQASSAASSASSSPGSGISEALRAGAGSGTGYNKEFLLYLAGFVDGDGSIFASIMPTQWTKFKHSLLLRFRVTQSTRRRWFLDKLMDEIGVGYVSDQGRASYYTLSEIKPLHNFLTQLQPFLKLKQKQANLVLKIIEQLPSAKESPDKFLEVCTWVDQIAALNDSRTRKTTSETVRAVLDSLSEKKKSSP

T5: DMD 35-36x.81 (synthetic construct)
T5 chain: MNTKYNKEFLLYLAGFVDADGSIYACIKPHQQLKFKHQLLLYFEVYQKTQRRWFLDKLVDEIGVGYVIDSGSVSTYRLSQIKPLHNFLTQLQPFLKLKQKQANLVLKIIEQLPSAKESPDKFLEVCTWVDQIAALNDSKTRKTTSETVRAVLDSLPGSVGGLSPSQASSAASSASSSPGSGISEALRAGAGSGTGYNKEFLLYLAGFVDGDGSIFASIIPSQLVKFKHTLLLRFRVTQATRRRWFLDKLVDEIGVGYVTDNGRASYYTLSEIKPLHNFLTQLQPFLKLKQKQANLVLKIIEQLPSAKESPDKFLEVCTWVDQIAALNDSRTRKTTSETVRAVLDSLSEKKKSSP

B1: DMD 37-38 recognition sequence (dsDNA)
DNA 1: CTGGCCGAAGTATAGGAATATG
DNA 2: CATATTCCTATACTTCGGCCAG
B2: DMD 35-36 recognition sequence (dsDNA)
DNA 1: CTACATGGTGTATCTGACTAAG
DNA 2: CTTAGTCAGATACACCATGTAG

Tests used:
Assay in all cases: cell_activity; MRC5 cells, 2 ng mRNA; also active in CHO GFP reporter
Details in all cases: tags: N-terminal SV40 NLS
[1] = target: T1, DMD 37-38x.15
Protocol: (§1) In these experiments, 1e6 MRC5 cells were electroporated with 2 ng or 100 ng mRNA encoding DMD meganucleases (DMD 19-20x.13, DMD 19-20x.87, DMD 29-30x.18, DMD 29-30x.40, DMD 35-36x.63, DMD 35-36x.81, DMD 37-38x.15, DMD 37-38x.66, or DMD 37-38x.79), or GFP using the Lonza Amaxa 4D system. Cells were collected at two days post electroporation for gDNA preparation and evaluated for transfection efficiency using a Beckman Coulter CytoFlex S cytometer. Transfection efficiency exceeded 90%. Additional time points were collected at five- and eight-days post electroporation for gDNA extractions. gDNA was prepared using the Macherey Nagel NucleoSpin Blood QuickPure kit.

[2] = target: T2, DMD 37-38x.66
Protocol: as §1

[3] = target: T3, DMD 37-38x.79
Protocol: as §1

[4] = target: T4, DMD 35-36x.63
Protocol: as §1

[5] = target: T5, DMD 35-36x.81
Protocol: as §1

| Binder | activity [1] | activity [2] | activity [3] | activity [4] | activity [5] |
| --- | --- | --- | --- | --- | --- |
| B1 | > 30 % indel | > 30 % indel | > 30 % indel | – | – |
| B2 | – | – | – | > 30 % indel | > 30 % indel |

Source: US20250034536, “POLYNUCLEOTIDES ENCODING ENGINEERED MEGANUCLEASES HAVING SPECIFICITY FOR RECOGNITION SEQUENCES IN THE DYSTROPHIN GENE” (Precision BioSciences, Inc., published 2025)
